Experimental data reported in patent US20140161803A1 (IFOM Fondazione Istituo FIRC di Oncologia Molecolare, priority 2011, published 2014).

Tested on: PC-3 cells
Assay: PC3 prostate cancer xenograft tumor growth
Format: in vivo, Balb C nu/nu mice
Conditions: 10.0 mg/kg i.p. bi-weekly; s.c. PC-3 xenograft; versus control animals
Experimental: Male Balb C nu/nu mice were inoculated with (1×10^6) PC-3 cells through the subcutaneous (s.c.) route. […] Tumors were measured twice weekly, and tumor volume was determined as described in Materials and Methods.
Six-week-old male Balb C nu/nu mice were obtained from Charles River. Before inoculation, PC-3 cells growing in serum-containing medium were washed with phosphate buffered saline (PBS), harvested by trypsinization, and pelleted at 1200 rpm for 7 minutes. Cells (1.0×10^6) were resuspended in 200 μl of PBS with 20% Matrigel. Animals were anesthetized by intraperitoneal (i.p.) injection of Avertin and 1.0×10^6 cells were inoculated subcutaneously (s.c.) using a 26-gauge needle into the right flank of anesthetized mice. […] The animals were monitored twice a week for 7 weeks for tumor development and growth. Tumor volume was determined according to the formula: tumor volume=shorter diameter^2×longer diameter/2. […] Results were analyzed as the mean±SE, and comparisons of the experimental data were analyzed by unpaired, two-tailed, equal variance, t-test.
In this model, one million PC3 cells were inoculated in the right flank of male Balb C nu/nu mice through subcutaneous route.

B1: 13F6: non-inhibitory monoclonal anti-uPAR antibody raised against GFDuPAR-hFc; IgG1 κ (antibody, V domains shown)
VH: ELVKPGASVELSCKASGYTFTSYWMNWVKQRPGRGLEWIGRIAPNSGGTQYSGKFKTKATLTVDKSSSTAYMQLSSLTSEDSAVYYCARGDYFGHFDYWGQGTTLTVS
VL: SLSASLGGKVTITCKASQDINNYIAWYQHKPGKGPRLLIHYTSILQPGIPSRFSGSGSGRDYSFSISNLEPEDIATYYCLQCDNLLTFGAGTKLELK
effect on tumor volume: A similar inhibition was not observed
